According to publication PMC8546600, “Chaperone Spy Protects Outer Membrane Proteins from Folding Stress via Dynamic Complex Formation” (mBio, 2021):
Substitutions are numbered along the chain they refer to. Numbers in names are those of the source.

What was measured:
Settings in all cases: both partners purified
His-OmpX = target: T1, His-OmpX (Escherichia coli, UniProt P0A917 24-171); experiment: other fluorescence titration; intrinsic tryptophan fluorescence of the OMP (0.4 uM) titrated with increasing Spy or Skp; 40 mM HEPES, 150 mM NaCl, 0.24 M urea, pH 7.5; 25 C; excitation 295 nm, emission 305-400 nm
T1 construct: Unfolded: diluted from 8 M urea to 0.24 M urea for the assay; source: E. coli, from pET28b(+)-His-ompX, purified, kept in 8 M urea; not shown: 6xHis, N-terminal, kept
T1 sequence (looked up): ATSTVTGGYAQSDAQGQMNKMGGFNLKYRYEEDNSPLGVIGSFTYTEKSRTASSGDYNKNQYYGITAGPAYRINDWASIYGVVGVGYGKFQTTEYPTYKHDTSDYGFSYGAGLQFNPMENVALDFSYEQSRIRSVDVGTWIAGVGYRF

His-OmpC = target: T2, His-OmpC (Escherichia coli, UniProt P06996 22-367); experiment: as above
T2 construct: Unfolded: diluted from 8 M urea to 0.24 M urea for the assay; source: E. coli, from pET28b(+)-His-ompC, purified, kept in 8 M urea; not shown: 6xHis, N-terminal, kept
T2 sequence (looked up): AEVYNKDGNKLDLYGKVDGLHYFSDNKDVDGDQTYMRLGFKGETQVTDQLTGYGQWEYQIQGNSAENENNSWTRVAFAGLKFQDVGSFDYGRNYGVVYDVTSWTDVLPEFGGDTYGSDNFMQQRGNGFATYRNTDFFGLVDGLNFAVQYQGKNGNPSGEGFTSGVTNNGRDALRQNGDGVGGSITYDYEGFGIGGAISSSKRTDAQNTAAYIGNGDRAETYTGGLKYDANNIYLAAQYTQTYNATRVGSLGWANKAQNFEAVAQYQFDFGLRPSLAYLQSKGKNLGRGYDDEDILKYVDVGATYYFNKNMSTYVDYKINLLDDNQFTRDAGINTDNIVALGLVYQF

His-OmpA = target: T3, His-OmpA (Escherichia coli, UniProt P0A910 22-346); experiment: as above
T3 construct: Unfolded: diluted from 8 M urea to 0.24 M urea for the assay; source: E. coli, from pET28b(+)-His-ompA, purified, kept in 8 M urea; not shown: 6xHis, N-terminal, kept
T3 sequence (looked up): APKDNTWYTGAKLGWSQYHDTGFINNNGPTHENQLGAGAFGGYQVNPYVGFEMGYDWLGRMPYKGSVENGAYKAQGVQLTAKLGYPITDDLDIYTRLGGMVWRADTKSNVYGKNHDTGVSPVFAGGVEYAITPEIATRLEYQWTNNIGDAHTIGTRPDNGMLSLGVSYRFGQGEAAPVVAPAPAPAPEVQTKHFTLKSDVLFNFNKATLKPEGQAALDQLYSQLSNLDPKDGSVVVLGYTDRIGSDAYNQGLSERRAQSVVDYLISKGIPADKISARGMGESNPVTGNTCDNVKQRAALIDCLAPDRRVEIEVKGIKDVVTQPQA

His-LamB = target: T4, His-LamB (Escherichia coli, UniProt P02943 26-446); experiment: as above
T4 construct: Unfolded: diluted from 8 M urea to 0.24 M urea for the assay; source: E. coli, from pET28b(+)-His-lamB, purified, kept in 8 M urea; not shown: 6xHis, N-terminal, kept
T4 sequence (P02943 26-446): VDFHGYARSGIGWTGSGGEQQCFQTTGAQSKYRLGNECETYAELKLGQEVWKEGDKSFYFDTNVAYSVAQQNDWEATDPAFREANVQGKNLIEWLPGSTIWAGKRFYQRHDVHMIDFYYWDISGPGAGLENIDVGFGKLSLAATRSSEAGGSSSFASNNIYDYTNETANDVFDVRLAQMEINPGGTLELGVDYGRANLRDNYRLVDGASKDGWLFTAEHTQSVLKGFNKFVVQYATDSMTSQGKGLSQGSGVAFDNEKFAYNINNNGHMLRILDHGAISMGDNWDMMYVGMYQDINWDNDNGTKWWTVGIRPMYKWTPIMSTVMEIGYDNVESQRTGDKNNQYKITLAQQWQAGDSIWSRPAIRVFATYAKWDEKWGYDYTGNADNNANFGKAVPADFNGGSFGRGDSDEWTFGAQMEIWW

untagged OmpX = target: T5, untagged OmpX (Escherichia coli, UniProt P0A917 24-171); experiment: NMR spectroscopy of assembled chaperone-OMP complexes; excess urea-denatured OMP added dropwise to the chaperone, supernatant concentrated; 2D [15N,1H]-TROSY or HSQC with one partner [U-2H,15N]-labelled; 25 mM MES, 50 mM NaCl, pH 6.5; 315 K (tOmpA-Spy also at 42, 26 and 15 C)
T5 construct: outer membrane protein OmpX of Escherichia coli; [U-2H,15N]-labelled in the TROSY experiments, unlabelled in the HSQC experiment with labelled Spy; source: E. coli, from pET28b(+)-ompX, purified from the insoluble pellet in 8 M urea (ion exchange)
T5 sequence (looked up): T1 sequence (looked up)

Measured: binding result

B1: periplasmic chaperone Spy (natural protein, Escherichia coli, UniProt P77754 24-161, looked up)
chain: ADTTTAAPADAKPMMHHKGKFGPHQDMMFKDLNLTDAQKQQIREIMKGQRDQMKRPPLEERRAMHDIIASDTFDKVKAEAQIAKMEEQRKANMLAHMETQNKIYNILTPEQKKQFNANFEKRLTERPAAKGKMPATAE
notes: Spy, periplasmic chaperone of Escherichia coli; [U-2H,15N]-labelled in the HSQC experiment with unlabelled OmpX, unlabelled elsewhere; also called wild-type Spy; WT Spy; source: E. coli, from pET28b(+)-HisSUMO-spy, purified (6xHis-SUMO tag removed, cation exchange)
binds: all assays above

B2: Spy^Q100L (natural protein, Escherichia coli, UniProt P77754 24-161, looked up)
chain: B1 chain with Q100L
notes: Spy of Escherichia coli with Q100L; also called Q100L variant; source: E. coli, from pET28b(+)-HisSUMO-spy-Q100L, purified
binds: untagged OmpX

B3: seventeen-kilodalton protein (Skp) (natural protein, Escherichia coli, UniProt P0AEU7 21-161, looked up)
chain: ADKIAIVNMGSLFQQVAQKTGVSNTLENEFKGRASELQRMETDLQAKMKKLQSMKAGSDRTKLEKDVMAQRQTFAQKAQAFEQDRARRSNEERGKLVTRIQTAVKSVANSQDIDLVVDANAVAYNSSDVKDITADVLKQVK
notes: Skp, periplasmic chaperone of Escherichia coli; source: E. coli, from pET28b(+)-HisSUMO-skp, purified (6xHis-SUMO tag removed, cation exchange)
not listed: untagged OmpX
binds: all other assays above
